From article PMC4694137

How the values were obtained:
[1] = biological target: AgaR2 (SSU05_0447) protein from Streptococcus suis (Streptococcus suis); test: cross-linking; purified protein (~5 mg/mL) in 15 uL incubated with EGS cross-linker (0, 2.5, 5, 10, 20 umol/L for AgaR2; 0.1, 0.2, 0.5, 1.0, 2.5, 5, 10, 20 umol/L for AgaR1) for 1 h at room temperature; 12% SDS-PAGE, Coomassie staining
[2] = biological target: AgaR1 (SSU05_0448) protein from Streptococcus suis (Streptococcus suis); test: as above

Row | Substance | stoichiometry N [1] | stoichiometry N [2]
1 | AgaR2 (SSU05_0447) protein from Streptococcus suis (natural protein) | 2 | –
2 | AgaR1 (SSU05_0448) protein from Streptococcus suis (natural protein) | – | 2
